This is an account of results in article PMC8695382 (Nature, 2021).

First the molecules themselves.
B2: Mcm5 (natural protein, Saccharomyces cerevisiae)
chain: MSFDRPEIYSAPVLQGESPNDDDNTEIIKSFKNFILEFRLDSQFIYRDQLRNNILVKNYSLTVNMEHLIGYNEDIYKKLSDEPSDIIPLFETAITQVAKRISILSRAQSANNNDKDPENTSMDTDSLLLNSLPTFQLILNSNANQIPLRDLDSEHVSKIVRLSGIIISTSVLSSRATYLSIMCRNCRHTTSITINNFNSITGNTVSLPRSCLSTIESESSMANESNIGDESTKKNCGPDPYIIIHESSKFIDQQFLKLQEIPELVPVGEMPRNLTMTCDRYLTNKVIPGTRVTIVGIYSIYNSKNGAGSGRSGGGNGGSGVAIRTPYIKILGIQSDVETSSIWNSVTMFTEEEEEEFLQLSRNPKLYEILTNSIAPSIFGNEDIKKAIVCLLMGGSKKILPDGMRLRGDINVLLLGDPGTAKSQLLKFVEKVSPIAVYTSGKGSSAAGLTASVQRDPMTREFYLEGGAMVLADGGVVCIDEFDKMRDEDRVAIHEAMEQQTISIAKAGITTVLNSRTSVLAAANPIYGRYDDLKSPGDNIDFQTTILSRFDMIFIVKDDHNEERDISIANHVINIHTGNANAMQNQQEENGSEISIEKMKRYITYCRLKCAPRLSPQAAEKLSSNFVTIRKQLLINELESTERSSIPITIRQLEAIIRITESLAKLELSPIAQERHVDEAIRLFQASTMDAASQDPIGGLNQASGTSLSEIRRFEQELKRRLPIGWSTSYQTLRREFVDTHRFSQLALDKALYALEKHETIQLRHQGQNIYRSGV
notes: Mcm5, S. cerevisiae; Subunit of m2; source: purified as part of CMG

Experiment in all cases: cryo-EM structure; yeast replisome–SCF^Dia2 complexes after gradient fixation; particles translocated onto dsDNA (conformations I and II)
Common to all, as to details: both partners purified

Assay [1] deals with T1, Mcm3 (Saccharomyces cerevisiae, UniProt P24279 1-971).
T1 construct: Mcm3, S. cerevisiae; Subunit of m2; source: purified as part of CMG

The target of assay [2] is T2, Pol2 (Saccharomyces cerevisiae, UniProt P21951 1-2222).
T2 construct: Pol2, catalytic subunit of DNA polymerase ε, S. cerevisiae; catalytic domain ends at residue 1186, non-catalytic domain begins at residue 1321; Subunit of m15; source: purified as part of Pol-ε

For assay [3], the target named is B2.
Assay [4] has as its target T3, Dia2 (Saccharomyces cerevisiae, UniProt Q08496 1-732).
T3 construct: Dia2, F-box protein, S. cerevisiae; model built for F-box (211–247), LRRs (248–716) and C-terminal tail (717–732); N-terminal TPR domain not visible; Subunit of m1 as it stands in the cryo-EM samples; also called Dia2^LRR (its leucine-rich repeat domain); source: purified as part of SCF^Dia2
T3 sequence: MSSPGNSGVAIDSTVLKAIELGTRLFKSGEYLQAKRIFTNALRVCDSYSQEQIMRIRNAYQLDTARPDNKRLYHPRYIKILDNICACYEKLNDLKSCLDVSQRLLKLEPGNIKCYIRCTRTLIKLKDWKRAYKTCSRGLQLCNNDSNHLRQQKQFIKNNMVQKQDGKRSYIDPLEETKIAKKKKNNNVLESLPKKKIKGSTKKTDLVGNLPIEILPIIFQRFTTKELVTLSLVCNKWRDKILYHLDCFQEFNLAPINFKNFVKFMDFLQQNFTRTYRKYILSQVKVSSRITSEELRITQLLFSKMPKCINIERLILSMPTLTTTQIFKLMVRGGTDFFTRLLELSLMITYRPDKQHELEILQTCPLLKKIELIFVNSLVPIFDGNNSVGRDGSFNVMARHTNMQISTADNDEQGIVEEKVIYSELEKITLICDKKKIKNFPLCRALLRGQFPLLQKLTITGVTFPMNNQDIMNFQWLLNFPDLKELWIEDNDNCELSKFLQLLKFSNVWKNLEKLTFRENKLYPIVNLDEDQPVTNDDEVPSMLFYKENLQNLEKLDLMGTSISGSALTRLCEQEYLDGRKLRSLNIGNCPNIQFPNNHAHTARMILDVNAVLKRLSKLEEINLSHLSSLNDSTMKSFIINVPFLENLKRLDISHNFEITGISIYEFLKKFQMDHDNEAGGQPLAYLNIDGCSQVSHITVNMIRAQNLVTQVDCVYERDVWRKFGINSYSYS

T2 sequence (P21951 whole entry, the tested form may be a part): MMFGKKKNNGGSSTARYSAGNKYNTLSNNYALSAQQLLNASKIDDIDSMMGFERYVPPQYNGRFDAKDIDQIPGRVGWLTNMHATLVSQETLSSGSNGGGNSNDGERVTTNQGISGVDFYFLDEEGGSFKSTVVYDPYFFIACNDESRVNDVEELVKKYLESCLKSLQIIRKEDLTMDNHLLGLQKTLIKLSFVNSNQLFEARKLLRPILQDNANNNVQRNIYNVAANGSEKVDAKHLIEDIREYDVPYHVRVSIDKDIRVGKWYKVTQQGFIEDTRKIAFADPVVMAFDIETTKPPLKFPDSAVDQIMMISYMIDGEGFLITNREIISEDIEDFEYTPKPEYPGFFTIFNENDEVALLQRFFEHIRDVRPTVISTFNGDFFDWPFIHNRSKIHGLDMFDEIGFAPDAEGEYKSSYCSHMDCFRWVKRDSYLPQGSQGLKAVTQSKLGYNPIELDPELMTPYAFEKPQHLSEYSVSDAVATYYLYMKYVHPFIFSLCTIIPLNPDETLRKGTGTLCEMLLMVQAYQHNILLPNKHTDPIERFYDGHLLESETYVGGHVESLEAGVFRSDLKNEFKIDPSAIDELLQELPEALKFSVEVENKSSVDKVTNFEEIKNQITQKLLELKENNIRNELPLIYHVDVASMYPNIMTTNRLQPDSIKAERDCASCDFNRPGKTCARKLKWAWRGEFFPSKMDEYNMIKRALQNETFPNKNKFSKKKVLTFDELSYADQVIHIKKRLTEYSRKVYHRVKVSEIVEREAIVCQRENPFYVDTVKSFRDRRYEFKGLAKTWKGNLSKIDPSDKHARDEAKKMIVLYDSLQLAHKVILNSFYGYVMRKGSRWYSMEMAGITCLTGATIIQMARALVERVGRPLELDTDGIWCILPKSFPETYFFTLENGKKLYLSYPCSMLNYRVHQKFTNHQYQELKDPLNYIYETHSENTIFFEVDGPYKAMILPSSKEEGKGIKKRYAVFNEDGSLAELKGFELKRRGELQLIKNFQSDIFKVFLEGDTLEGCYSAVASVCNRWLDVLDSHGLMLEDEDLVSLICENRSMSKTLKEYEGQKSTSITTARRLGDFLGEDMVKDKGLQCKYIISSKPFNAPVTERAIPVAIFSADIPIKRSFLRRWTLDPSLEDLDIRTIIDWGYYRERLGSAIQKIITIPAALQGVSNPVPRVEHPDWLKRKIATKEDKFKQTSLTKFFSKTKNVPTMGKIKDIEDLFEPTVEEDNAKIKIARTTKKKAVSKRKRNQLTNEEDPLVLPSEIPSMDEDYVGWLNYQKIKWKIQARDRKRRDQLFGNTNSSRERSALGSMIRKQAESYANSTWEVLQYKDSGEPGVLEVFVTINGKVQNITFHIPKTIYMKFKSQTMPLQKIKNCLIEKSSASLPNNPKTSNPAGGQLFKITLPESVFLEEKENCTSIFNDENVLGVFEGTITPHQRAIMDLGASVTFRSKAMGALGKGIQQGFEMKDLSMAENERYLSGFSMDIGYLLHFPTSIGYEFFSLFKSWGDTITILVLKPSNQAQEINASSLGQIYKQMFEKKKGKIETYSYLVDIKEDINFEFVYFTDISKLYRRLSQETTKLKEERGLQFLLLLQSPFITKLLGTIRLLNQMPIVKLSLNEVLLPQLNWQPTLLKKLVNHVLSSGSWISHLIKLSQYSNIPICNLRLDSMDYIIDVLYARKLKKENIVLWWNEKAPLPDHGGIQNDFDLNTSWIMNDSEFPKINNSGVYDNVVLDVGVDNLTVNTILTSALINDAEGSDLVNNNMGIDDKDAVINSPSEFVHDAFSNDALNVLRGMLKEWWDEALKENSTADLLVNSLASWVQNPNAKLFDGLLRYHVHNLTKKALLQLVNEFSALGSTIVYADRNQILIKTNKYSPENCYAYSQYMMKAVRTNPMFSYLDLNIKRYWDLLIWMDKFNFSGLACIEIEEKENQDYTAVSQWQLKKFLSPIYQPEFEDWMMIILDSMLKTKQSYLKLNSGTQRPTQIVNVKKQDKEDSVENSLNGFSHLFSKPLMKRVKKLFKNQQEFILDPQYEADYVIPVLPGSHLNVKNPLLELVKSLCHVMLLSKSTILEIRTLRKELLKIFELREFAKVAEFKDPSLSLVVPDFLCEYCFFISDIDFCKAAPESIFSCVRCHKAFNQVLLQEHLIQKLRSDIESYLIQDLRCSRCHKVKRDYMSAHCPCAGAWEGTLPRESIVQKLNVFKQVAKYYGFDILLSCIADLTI
T1 sequence (P24279 whole entry): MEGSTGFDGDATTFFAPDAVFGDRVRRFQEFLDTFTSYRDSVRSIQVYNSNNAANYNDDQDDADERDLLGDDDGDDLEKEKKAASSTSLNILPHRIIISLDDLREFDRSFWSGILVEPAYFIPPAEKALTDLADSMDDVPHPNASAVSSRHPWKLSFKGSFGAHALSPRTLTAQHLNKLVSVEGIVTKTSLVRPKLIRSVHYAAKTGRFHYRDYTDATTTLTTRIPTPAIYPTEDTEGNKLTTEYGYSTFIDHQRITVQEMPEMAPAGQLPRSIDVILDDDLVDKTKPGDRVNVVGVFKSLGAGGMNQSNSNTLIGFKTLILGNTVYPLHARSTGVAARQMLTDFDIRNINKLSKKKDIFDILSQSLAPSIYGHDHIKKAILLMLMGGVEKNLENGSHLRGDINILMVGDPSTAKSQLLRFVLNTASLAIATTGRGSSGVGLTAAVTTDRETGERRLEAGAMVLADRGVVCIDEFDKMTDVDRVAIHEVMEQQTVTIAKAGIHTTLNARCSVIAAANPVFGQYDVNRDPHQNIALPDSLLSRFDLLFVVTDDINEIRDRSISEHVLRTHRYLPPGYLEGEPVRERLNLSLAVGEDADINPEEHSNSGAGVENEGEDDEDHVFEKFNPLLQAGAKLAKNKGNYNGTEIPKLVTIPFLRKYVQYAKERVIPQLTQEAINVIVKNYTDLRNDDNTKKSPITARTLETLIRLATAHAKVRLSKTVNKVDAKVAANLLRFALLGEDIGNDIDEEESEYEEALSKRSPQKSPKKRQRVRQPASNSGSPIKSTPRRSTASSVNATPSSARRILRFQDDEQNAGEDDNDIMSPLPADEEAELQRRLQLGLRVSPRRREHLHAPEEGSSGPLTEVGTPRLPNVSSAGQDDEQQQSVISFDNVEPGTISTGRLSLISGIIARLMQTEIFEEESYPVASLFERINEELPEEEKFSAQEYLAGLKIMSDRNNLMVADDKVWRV

B1: Mcm7 (natural protein, Saccharomyces cerevisiae)
chain: MSAALPSIQLPVDYNNLFNEITDFLVTFKQDTLSSDATRNENEDENLDAENIEQHLLEKGPKYMAMLQKVANRELNSVIIDLDDILQYQNEKFLQGTQADDLVSAIQQNANHFTELFCRAIDNNMPLPTKEIDYKDDVLDVILNQRRLRNERMLSDRTNEIRSENLMDTTMDPPSSMNDALREVVEDETELFPPNLTRRYFLYFKPLSQNCARRYRKKAISSKPLSVRQIKGDFLGQLITVRGIITRVSDVKPAVEVIAYTCDQCGYEVFQEVNSRTFTPLSECTSEECSQNQTKGQLFMSTRASKFSAFQECKIQELSQQVPVGHIPRSLNIHVNGTLVRSLSPGDIVDVTGIFLPAPYTGFKALKAGLLTETYLEAQFVRQHKKKFASFSLTSDVEERVMELITSGDVYNRLAKSIAPEIYGNLDVKKALLLLLVGGVDKRVGDGMKIRGDINVCLMGDPGVAKSQLLKAICKISPRGVYTTGKGSSGVGLTAAVMKDPVTDEMILEGGALVLADNGICCIDEFDKMDESDRTAIHEVMEQQTISISKAGINTTLNARTSILAAANPLYGRYNPRLSPLDNINLPAALLSRFDILFLMLDIPSRDDDEKLAEHVTYVHMHNKQPDLDFTPVEPSKMREYIAYAKTKRPVMSEAVNDYVVQAYIRLRQDSKREMDSKFSFGQATPRTLLGIIRLSQALAKLRLADMVDIDDVEEALRLVRVSKESLYQETNKSKEDESPTTKIFTIIKKMLQETGKNTLSYENIVKTVRLRGFTMLQLSNCIQEYSYLNVWHLINEGNTLKFVDDGTMDTDQEDSLVSTPKLAPQTTASANVSAQDSDIDLQDA
notes: Mcm7, S. cerevisiae; Subunit of m2; source: purified as part of CMG
For B1, the binding result in assay [1] was “binds”.

Take B2: the binding result in assay [2] was “binds”.

B3: Dpb2 (natural protein, Saccharomyces cerevisiae)
chain: MFGSGNVLPVKIQPPLLRPLAYRVLSRKYGLSIKSDGLSALAEFVGTNIGANWRQGPATIKFLEQFAAVWKQQERGLFIDQSGVKEVIQEMKEREKVEWSHEHPIQHEENILGRTDDDENNSDDEMPIAADSSLQNVSLSSPMRQPTERDEYKQPFKPESSKALDWRDYFKVINASQQQRFSYNPHKMQFIFVPNKKQNGLGGIAGFLPDIEDKVQMFLTRYYLTNDRVMRNENFQNSDMFNPLSSMVSLQNELSNTNRQQQSSSMSITPIKNLLGRDAQNFLLLGLLNKNFKGNWSLEDPSGSVEIDISQTIPTQGHYYVPGCMVLVEGIYYSVGNKFHVTSMTLPPGERREITLETIGNLDLLGIHGISNNNFIARLDKDLKIRLHLLEKELTDHKFVILGANLFLDDLKIMTALSKILQKLNDDPPTLLIWQGSFTSVPVFASMSSRNISSSTQFKNNFDALATLLSRFDNLTENTTMIFIPGPNDLWGSMVSLGASGTLPQDPIPSAFTKKINKVCKNVVWSSNPTRIAYLSQEIVIFRDDLSGRFKRHRLEFPFNESEDVYTENDNMMSKDTDIVPIDELVKEPDQLPQKVQETRKLVKTILDQGHLSPFLDSLRPISWDLDHTLTLCPIPSTMVLCDTTSAQFDLTYNGCKVINPGSFIHNRRARYMEYVPSSKKTIQEEIYI
notes: Dpb2, subunit of DNA polymerase ε, S. cerevisiae; Subunit of m15; source: purified as part of Pol-ε
As to B3, the binding result in assay [3] is given as “binds”.

B4: Mcm2 (natural protein, Saccharomyces cerevisiae)
chain: MSDNRRRRREEDDSDSENELPPSSPQQHFRGGMNPVSSPIGSPDMINPEGDDNEVDDVPDIDEVEEQMNEVDLMDDNMYEDYAADHNRDRYDPDQVDDREQQELSLSERRRIDAQLNERDRLLRNVAYIDDEDEEQEGAAQLDEMGLPVQRRRRRRQYEDLENSDDDLLSDMDIDPLREELTLESLSNVKANSYSEWITQPNVSRTIARELKSFLLEYTDETGRSVYGARIRTLGEMNSESLEVNYRHLAESKAILALFLAKCPEEMLKIFDLVAMEATELHYPDYARIHSEIHVRISDFPTIYSLRELRESNLSSLVRVTGVVTRRTGVFPQLKYVKFNCLKCGSILGPFFQDSNEEIRISFCTNCKSKGPFRVNGEKTVYRNYQRVTLQEAPGTVPPGRLPRHREVILLADLVDVSKPGEEVEVTGIYKNNYDGNLNAKNGFPVFATIIEANSIKRREGNTANEGEEGLDVFSWTEEEEREFRKISRDRGIIDKIISSMAPSIYGHRDIKTAVACSLFGGVPKNVNGKHSIRGDINVLLLGDPGTAKSQILKYVEKTAHRAVFATGQGASAVGLTASVRKDPITKEWTLEGGALVLADKGVCLIDEFDKMNDQDRTSIHEAMEQQSISISKAGIVTTLQARCSIIAAANPNGGRYNSTLPLAQNVSLTEPILSRFDILCVVRDLVDEEADERLATFVVDSHVRSHPENDEDREGEELKNNGESAIEQGEDEINEQLNARQRRLQRQRKKEEEISPIPQELLMKYIHYARTKIYPKLHQMDMDKVSRVYADLRRESISTGSFPITVRHLESILRIAESFAKMRLSEFVSSYDLDRAIKVVVDSFVDAQKVSVRRQLRRSFAIYTLGH
notes: Mcm2, S. cerevisiae; Subunit of m2; source: purified as part of CMG
Turning to B4, in assay [2], the binding result is “binds”.

B5: Csm3 (natural protein, Saccharomyces cerevisiae)
chain: MDQDFDSLLLGFNDSDSVQKDPTVPNGLDGSVVDPTIADPTAITARKRRPQVKLTAEKLLSDKGLPYVLKNAHKRIRISSKKNSYDNLSNIIQFYQLWAHELFPKAKFKDFMKICQTVGKTDPVLREYRVSLFRDEMGMSFDVGTRETGQDLERQSPMVEEHVTSAEERPIVADSFAQDKRNVNNVDYDNDEDDDIYHLSYRNRRGRVLDERGNNETVLNNVVPPKEDLDALLKTFRVQGPVGLEENEKKLLLGWLDAHRKMEKGSMTEEDVQLIQSLEEWEMNDIEGQHTHYDLLPGGDEFGVDQDELDAMKEMGF
notes: Csm3, S. cerevisiae; Subunit of m12; source: purified as part of Tof1–Csm3
As to B5, the binding result in assay [4] is on record as “binds”.
